Measured values: US20240035010, “COMPOSITIONS COMPRISING A VARIANT POLYPEPTIDE AND USES THEREOF” (Arbor Biotechnologies, Inc., published 2024)

What was measured:
[1] = target: T1, variant nuclease E154G combination (P14R, D32R, I61R, E311R, E154G); test: cell_activity; PAM 5'-TTTG-3'; settings: tags: pcDNA3.1 expression
T1 chain: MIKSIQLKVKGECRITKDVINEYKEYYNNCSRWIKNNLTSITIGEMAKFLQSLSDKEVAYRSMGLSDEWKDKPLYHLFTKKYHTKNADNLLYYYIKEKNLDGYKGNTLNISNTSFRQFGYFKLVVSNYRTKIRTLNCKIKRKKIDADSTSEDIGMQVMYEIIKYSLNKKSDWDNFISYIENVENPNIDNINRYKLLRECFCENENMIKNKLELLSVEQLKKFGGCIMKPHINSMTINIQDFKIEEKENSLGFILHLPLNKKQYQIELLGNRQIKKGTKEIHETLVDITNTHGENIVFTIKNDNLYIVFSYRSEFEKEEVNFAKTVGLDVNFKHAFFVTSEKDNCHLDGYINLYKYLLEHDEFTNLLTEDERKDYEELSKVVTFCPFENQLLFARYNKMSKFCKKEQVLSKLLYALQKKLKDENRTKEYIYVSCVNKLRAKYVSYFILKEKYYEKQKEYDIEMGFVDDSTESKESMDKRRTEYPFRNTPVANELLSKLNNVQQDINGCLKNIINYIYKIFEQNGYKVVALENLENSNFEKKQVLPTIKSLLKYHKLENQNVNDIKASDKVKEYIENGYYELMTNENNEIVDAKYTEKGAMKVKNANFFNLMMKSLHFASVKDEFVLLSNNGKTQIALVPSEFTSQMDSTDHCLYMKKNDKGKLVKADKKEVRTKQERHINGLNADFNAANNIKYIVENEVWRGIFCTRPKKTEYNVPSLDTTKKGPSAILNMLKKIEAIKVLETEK
Method in brief: (§1)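 HEK293T cells were lipofected with nuclease plasmid (pcDNA3.1 backbone) plus RNA guide plasmid, with guide omitted in negative controls. After ~72 h cells were lysed in QuickExtract and % indels were derived from NGS reads, averaged over two bioreplicates and two technical replicates.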

[2] = target: T2, variant nuclease T338G combination (P14R, D32R, I61R, E311R, T338G); test: cell_activity; PAM 5'-TTTG-3'; settings: tags: pcDNA3.1 expression
T2 chain: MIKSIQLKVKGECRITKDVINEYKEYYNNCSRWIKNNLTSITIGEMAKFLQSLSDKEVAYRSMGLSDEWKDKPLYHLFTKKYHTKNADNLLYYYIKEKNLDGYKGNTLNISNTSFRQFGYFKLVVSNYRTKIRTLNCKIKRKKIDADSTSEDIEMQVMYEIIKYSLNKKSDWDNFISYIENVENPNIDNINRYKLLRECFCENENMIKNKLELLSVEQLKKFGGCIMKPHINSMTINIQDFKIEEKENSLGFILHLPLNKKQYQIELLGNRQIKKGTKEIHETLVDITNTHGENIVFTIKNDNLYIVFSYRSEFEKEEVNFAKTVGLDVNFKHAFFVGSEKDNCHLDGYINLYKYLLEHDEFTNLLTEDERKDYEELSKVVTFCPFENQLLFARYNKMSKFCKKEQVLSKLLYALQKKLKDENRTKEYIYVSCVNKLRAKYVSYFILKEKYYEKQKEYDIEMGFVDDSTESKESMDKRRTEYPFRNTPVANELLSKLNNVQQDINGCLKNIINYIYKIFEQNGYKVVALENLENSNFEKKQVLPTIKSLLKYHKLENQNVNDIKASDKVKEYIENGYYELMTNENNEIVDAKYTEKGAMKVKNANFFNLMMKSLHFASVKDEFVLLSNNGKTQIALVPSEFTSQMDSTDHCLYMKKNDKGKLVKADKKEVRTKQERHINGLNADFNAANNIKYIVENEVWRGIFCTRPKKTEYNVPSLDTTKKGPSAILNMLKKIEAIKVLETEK
Method in brief: as §1

B1: AAVS1 crRNA ; AAVS1 target (ssRNA ; dsDNA)
RNA: CUUGUUGUAUAUGUCCUUUUAUAGGUAUUAAACAACUGAGAAUGGUGCGUCCUAGG
DNA 1: TGAGAATGGTGCGTCCTAGG
DNA 2: CCTAGGACGCACCATTCTCA
indel activity [1]: 5.79 fold of WT | indel activity [2]: 5.93 fold of WT
